Measurements reported in patent US20100068208A1, “Degranulation inhibitor” (priority 2005, published 2010).
Read-outs that look alike come from different tables or passages of the source. Where no end group is shown, it is not given here.

Columns and labels:
[1] = test system: human mast cell line LAD 2; test: TGR12 ligand-dependent degranulation of LAD 2 (β-hexosaminidase release); format: cell-based
Protocol: Human mast cell line LAD 2 was incubated in StemPro-34 medium (Invitrogen) supplemented with 100 ng/mL of stem cell factor (Immuno-Biological Laboratories Co., Ltd.). […] Subsequently, Tyrode's buffer containing 50 μL of TGR12 ligand (Peptide Institute, Inc.) in various concentrations was added and incubation was continued at 37° C. for further 20 minutes to induce degranulation. The degree of degranulation was determined by assaying the β-hexosaminidase activity in the degranulation assay supernatant as given below. The supernatant was dispensed into a 96-well plate and 0.1M citrate (pH 4.5)/1 mM 4-methyl umbelliferyl-2-acetamido-2-deoxy-beta-D-glucopyranoside (Wako Pure Chemical) in 5-fold of the supernatant was added thereto, followed by incubation at 37° C. for an hour. […] The activity was then assayed using Fusion-α (Perkin-Elmer). The β-hexosaminidase activity was also shown by the activity in the supernatant obtained by centrifugation after freezing and thawing LAD 2 four times, which was made total β-hexosaminidase activity in LAD 2, and the degree of degranulation was shown as the percentage of the β-hexosaminidase activity in the LAD 2 supernatant based on the total β-hexosaminidase activity.

[2] = test system: TGR12; format: cell-based, human
Protocol: CHO/dhfr^− cells (hereinafter CHO) were incubated in α-MEM (Invitrogen) supplemented with 10% fetal calf serum. After a termination codon in the TGR12-encoding nucleotide sequence was removed, a nucleotide sequence ligated with the nucleotide sequence encoding GFP (Wako Pure Chemical) [hereinafter briefly referred to as TGR12-GFP (DNA having the nucleotide sequence represented by SEQ ID NO: 31)] was incorporated into vector plasmid pAKKO-111H (the same vector plasmid as pAKKO1.11H described in Biochim. Biophys. Acta, 1219, 251-259 (1994)) for animal cell expression, and the vector plasmid was stably expressed to establish TGR12-GFP-expressed CHO cell line (hereinafter CHO-TGR12). CHO-TGR12 was incubated in nucleic acid-free α-MEM medium (Invitrogen) containing 10% dialyzed fetal calf serum.
CHO-TGR12 was plated in a 96-well plate at a density of 30,000 cells/well. After incubation overnight, the medium was discarded and 100 μL/well of assay buffer [Hank's Balanced Salt Solution (Invitrogen), 20 mM HEPES (Dojin Chemical Laboratory) and 2.5 mM Probenecid (Sigma)] containing 4 μM Fluo3-AM (Dojin Chemical Laboratory) was added, which was then allowed to stand for an hour at 37° C. […] After the cells were washed with assay buffer, fluorescence reflecting changes in intracellular calcium levels was assayed on FLIPR (Molecular Device). Ten seconds after initiation of the assay, 50 μL of a sample was added at a rate of 50 μL/second. Fluorescence measurement was taken every 1 second during the first 60 seconds and then every 6 seconds during the next 120 seconds; the highest fluorescence intensity over a 3 minute period was taken as the maximum activity under the stimulation condition, representing the mean value of 3 wells. The EC50 values were determined using Graphpad PRISM 4 (Graphpad Software).

[3] = target: T1, human TGR12 (untagged) (human, UniProt Q96LB1 1-330); test: cell-based or functional assay
T1 sequence: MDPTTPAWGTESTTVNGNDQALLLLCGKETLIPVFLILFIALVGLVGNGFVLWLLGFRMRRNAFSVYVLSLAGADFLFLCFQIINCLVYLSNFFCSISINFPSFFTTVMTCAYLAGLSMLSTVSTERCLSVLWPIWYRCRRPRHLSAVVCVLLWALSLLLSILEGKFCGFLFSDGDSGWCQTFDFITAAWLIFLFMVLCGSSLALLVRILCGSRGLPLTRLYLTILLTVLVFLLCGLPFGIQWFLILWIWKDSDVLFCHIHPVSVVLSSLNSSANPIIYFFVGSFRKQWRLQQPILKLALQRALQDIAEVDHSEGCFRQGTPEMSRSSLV

[4] = target: TGR12-GFP (fused protein of human TGR12 and GFP, encoded by the DNA of SEQ ID NO: 31), stably expressed on CHO cells (CHO-TGR12 of Example 1) (human) (UniProt Q96LB1); test: cell-based or functional assay
[5] = target: T2, TGR12-GFP (fused protein of human TGR12 and GFP, encoded by the DNA of SEQ ID NO: 31), stably expressed on … (human, UniProt Q96LB1 1-330); test: cell-based or functional assay
T2 sequence: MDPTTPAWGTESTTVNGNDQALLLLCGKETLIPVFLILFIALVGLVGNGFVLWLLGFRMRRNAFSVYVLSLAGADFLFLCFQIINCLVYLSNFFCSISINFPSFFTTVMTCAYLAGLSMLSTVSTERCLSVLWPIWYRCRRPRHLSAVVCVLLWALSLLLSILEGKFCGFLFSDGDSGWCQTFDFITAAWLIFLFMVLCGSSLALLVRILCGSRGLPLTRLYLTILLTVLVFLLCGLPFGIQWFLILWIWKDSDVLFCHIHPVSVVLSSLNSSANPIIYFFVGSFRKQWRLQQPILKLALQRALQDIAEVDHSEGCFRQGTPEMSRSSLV

## CC[C@H](C)[C@H](NC(=O)CNC(=O)[C@H](CC(=O)O)NC(=O)[C@H](CO)NC(=O)[C@@H](N)Cc1c[nH]cn1)C(=O)N[C@@H](Cc1ccccc1)C(=O)N[C@H](C(=O)N[C@@H](CC(=O)O)C(=O)N[C@@H](CO)C(=O)N[C@@H](Cc1ccc(O)cc1)C(=O)N[C@@H](CO)C(=O)N[C@@H](CCCNC(=N)N)C(=O)N[C@@H](Cc1ccc(O)cc1)C(=O)N[C@@H](CCCNC(=N)N)C(=O)N[C@@H](CCCCN)C(=O)N[C@@H](CCC(N)=O)C(=O)N[C@@H](CCSC)C(=O)N[C@@H](C)C(=O)N[C@H](C(=O)N[C@@H](CCCCN)C(=O)N[C@@H](CCCCN)C(=O)N[C@@H](Cc1ccc(O)cc1)C(=O)N[C@@H](CC(C)C)C(=O)N[C@@H](C)C(=O)N[C@@H](C)C(=O)N[C@H](C(=O)N[C@@H](CC(C)C)C(=O)NCC(=O)N[C@@H](CCCCN)C(=O)N[C@@H](CCCNC(=N)N)C(=O)N[C@@H](Cc1ccc(O)cc1)C(=O)N[C@@H](CCCCN)C(=O)N[C@@H](CCC(N)=O)C(=O)N[C@@H](CCCNC(=N)N)C(=O)N[C@H](C(=O)N[C@@H](CCCCN)C(=O)N[C@@H](CC(N)=O)C(=O)N[C@@H](CCCCN)C(N)=O)C(C)C)C(C)C)C(C)C)[C@@H](C)O [PACAP-38]
[1]; LAD 2, 10 nM
  stimulated degranulation (β-hexosaminidase in supernatant, % of total): 7.4%
[1]; LAD 2, 30 nM
  stimulated degranulation (β-hexosaminidase in supernatant, % of total): 24.8%
[1]; LAD 2, 100 nM
  stimulated degranulation (β-hexosaminidase in supernatant, % of total): 49.4%
[1]; LAD 2, 300 nM
  stimulated degranulation (β-hexosaminidase in supernatant, % of total): 65.8%
[1]; LAD 2, 1 μM
  stimulated degranulation (β-hexosaminidase in supernatant, % of total): 68.9%
[1]; LAD 2, 3 μM
  stimulated degranulation (β-hexosaminidase in supernatant, % of total): 63.3%
[1]; LAD 2, read-out: EC50 in the degranulation on LAD 2
  EC50: ~51 nM
[2]; CHO-TGR12, 0.3 nM, highest fluorescence intensity over 3 minutes
  maximum activity in the calcium increasing effect: 287
[2]; CHO-TGR12, 3 nM
  maximum activity in the calcium increasing effect: 410
[2]; CHO-TGR12, 30 nM
  maximum activity in the calcium increasing effect: 195
[2]; CHO-TGR12, 300 nM
  maximum activity in the calcium increasing effect: 23043
[2]; CHO-TGR12, 3000 nM
  maximum activity in the calcium increasing effect: 23315
[2]; CHO-TGR12, read-out: EC50 in the calcium increasing effect on CHO-TGR12
  EC50: ~161 nM

## human PAMP12 (proadrenomedullin N-terminal 20 peptide (9-20)) (from UniProt P35318 30-41)
[3]
  EC50 in the degranulation on LAD 2: 13 nM
  degranulation of LAD 2 (beta-hexosaminidase release, % of total) at 3 nM: 6.3%
  degranulation of LAD 2 (beta-hexosaminidase release, % of total) at 10 nM: 30.7%
  degranulation of LAD 2 (beta-hexosaminidase release, % of total) at 30 nM: 52.1%
  degranulation of LAD 2 (beta-hexosaminidase release, % of total) at 100 nM: 65.2%
  degranulation of LAD 2 (beta-hexosaminidase release, % of total) at 300 nM: 67.7%
  degranulation of LAD 2 (beta-hexosaminidase release, % of total) at 1 µM: 69.3%
  maximum activity in the calcium increasing effect (FLIPR), RBL2H3-TGR12, at 1 nM (fluorescence intensity): 41
  maximum activity in the calcium increasing effect (FLIPR), RBL2H3-TGR12, at 10 nM (fluorescence intensity): 2090
  maximum activity in the calcium increasing effect (FLIPR), RBL2H3-TGR12, at 100 nM (fluorescence intensity): 11100
  maximum activity in the calcium increasing effect (FLIPR), RBL2H3-TGR12, at 1 µM (fluorescence intensity): 12000
  maximum activity in the calcium increasing effect (FLIPR), RBL2H3-TGR12, at 10 µM (fluorescence intensity): 12300
[4]
  EC50 in the calcium increasing effect on CHO-TGR12: 98 nM
  maximum activity in the calcium increasing effect (FLIPR), CHO-TGR12, at 0.3 nM (fluorescence intensity): 255
  maximum activity in the calcium increasing effect (FLIPR), CHO-TGR12, at 3 nM (fluorescence intensity): 1620
  maximum activity in the calcium increasing effect (FLIPR), CHO-TGR12, at 30 nM (fluorescence intensity): 22300
  maximum activity in the calcium increasing effect (FLIPR), CHO-TGR12, at 300 nM (fluorescence intensity): 24100
  maximum activity in the calcium increasing effect (FLIPR), CHO-TGR12, at 3000 nM (fluorescence intensity): 23700

## DRMPCRNFFWKTFSSCK (peptide, UniProt O00230 89-105, looked up, not fully specified; ends and bridges not checked) [human cortistatin-17]
[3]
  degranulation of LAD 2 (beta-hexosaminidase release, % of total) at 10 nM: 1.6%
  degranulation of LAD 2 (beta-hexosaminidase release, % of total) at 30 nM: 2.8%
  degranulation of LAD 2 (beta-hexosaminidase release, % of total) at 100 nM: 26.5%
  degranulation of LAD 2 (beta-hexosaminidase release, % of total) at 300 nM: 52.8%
  degranulation of LAD 2 (beta-hexosaminidase release, % of total) at 1 µM: 62.2%
  degranulation of LAD 2 (beta-hexosaminidase release, % of total) at 3 µM: 58.9%
  maximum activity in the calcium increasing effect (FLIPR), RBL2H3-TGR12, at 1 nM: -2 fluorescence intensity
  maximum activity in the calcium increasing effect (FLIPR), RBL2H3-TGR12, at 10 nM: 33 fluorescence intensity
  maximum activity in the calcium increasing effect (FLIPR), RBL2H3-TGR12, at 100 nM: 1570 fluorescence intensity
  maximum activity in the calcium increasing effect (FLIPR), RBL2H3-TGR12, at 1 µM: 11200 fluorescence intensity
  maximum activity in the calcium increasing effect (FLIPR), RBL2H3-TGR12, at 10 µM: 12800 fluorescence intensity
[5]
  maximum activity in the calcium increasing effect (FLIPR), CHO-TGR12, at 0.3 nM: 67 fluorescence intensity
  maximum activity in the calcium increasing effect (FLIPR), CHO-TGR12, at 3 nM: 54 fluorescence intensity
  maximum activity in the calcium increasing effect (FLIPR), CHO-TGR12, at 30 nM: 94 fluorescence intensity
  maximum activity in the calcium increasing effect (FLIPR), CHO-TGR12, at 300 nM: 17900 fluorescence intensity
  maximum activity in the calcium increasing effect (FLIPR), CHO-TGR12, at 3000 nM: 23600 fluorescence intensity
